# Data from paper PMC2714540.
# Target: Smurf1 (UniProt Q9HCE7)
# Assay: binding to Smurf1, pull-down format inferred
# Details: reference: Tal210-605 wild type; sites S425
substance,measurement,value
"talin (talin head, TH) 210-605 (from UniProt P26039) Tal210-605 S425A",binding against the reference,stronger
